Experimental data: patent US5863888A, “Human Bek Fibroblast growth factor receptor” (Rhone-Poulenc Rorer Pharmaceuticals Inc., priority 1995, dated 1999)
Like-named read-outs stand apart in the source and are kept apart here.

B1: aFGF: Bovine derived acidic fibroblast growth factor, purified, radioiodinated for binding (protein, UniProt P03968 16-155, looked up)
Fibroblast growth factor 1: FNLPLGNYKKPKLLYCSNGGYFLRILPDGTVDGTKDRSDQHIQLQLCAESIGEVYIKSTETGQFLAMDTDGLLYGSQTPNEECLFLERLEENHYNTYISKKHAEKHWFVGLKKNGRSKLGPRTHFGQKAILFLPLPVSSD
modifications: radioiodinated
B2: kFGF: human recombinant kFGF, member of the FGF family, radioiodinated for binding (protein, UniProt P08620 31-206, looked up)
Fibroblast growth factor 4: APTAPNGTLEAELERRWESLVALSLARLPVAAQPKEAAVQSGAGDYLLGIKRLRRLYCNVGIGFHLQALPDGRIGGAHADTRDSLLELSPVERGVVSIFGVASRFFVAMSSKGKLYGSPFFTDECTFKEILLPNNYNAYESYKYPGMFIALSKNGKTKKGNRVSPTMKVTHFLPRL
modifications: radioiodinated

How the values were obtained:
flg = assay: Saturation (equilibrium) binding of [125I]FGF to flg-overexpressing cells, Scatchard analysis; parameters: species or system human; settings: for binding of [125I]aFGF and [125I]bFGF at saturation to flg in presence of unlabelled ligand: 100 fold molar excess of unlabelled ligand
Method: (§1) Bovine derived aFGF, purified as previously described (Burgess, et al., J. Biol. Chem., 260: 11389-11392 (1985)), human recombinant bFGF (a kind gift of Dr. Moscatelli) and human recombinant kFGF (a kind gift of Dr. Claudio Basilico) were radioiodinated using the protocol for Enzymobeads (BioRad). The specific activity of the radiolabelled ligand was determined by radioisotope dilution using the respective unlabelled competitsr. The concentrations of the unlabelled ligands were determined by amino acid analysis (Jaye, et al., 1987 supra). The specific activity of the different preparations of [^125 I]aFGF varied between 130,000-760,000 cpm/ng and the specific activity for [^125 I]bFGF between 50,000-500,000 cpm/ng. The specific activity of [^125 I]kFGF varied from 50,000-200,000 cpm/ng. The binding assay was performed as follows: Fibronectin-coated 24 well dishes containing 1×10^5 cells/well were placed on ice, and the wells were rinsed twice with cold binding buffer (DMEM, 1 mg/ml BSA, 5 U/ml heparin, 50 mM Hepes, pH 7.4). Dishes were incubated on ice with 1 ml of ice cold binding buffer for 20 minutes, followed by 2 hours at 4° C. with serial dilutions of the [^125 I]FGF in cold binding buffer without heparin. Nonspecific binding was obtained using the same serial dilutions but in the presence of 100 fold molar excess of non-radioactive aFGF. After incubation, the cells were placed on-ice and rinsed twice with ice cold binding buffer minus heparin and then solubilized in 0.3N NaOH 37° C., 15 minutes. When [^125 I]bFGF was used the cells were placed on ice after incubation, washed three times with PBS, twice with 1 ml 2M NaCl in 20 mM Hepes, pH 7.5 and twice with 1 ml 2M NaCl in 20 mM sodium acetate, pH 4.0. The radioactivity released by the acid 2M NaCl wash represents specific binding to high affinity sites (Moscatelli, J. Cell. Physiol., 131: 123-130 (1987)). Acidic and basic FGF were radioiodinated and purified on heparin-Sepharose as described above. The dissociation constants of bek and fiq for aFGF and bFGF were established by saturation binding analysis of the overexpressing cell lines with the iodinated ligands. Binding of both aFGF and bFGF to bek and flg was specific and saturable (FIG. 6A, inserts). […] Also kFGF binds to bek with similar affinity as does bFGF but binds to flg with 4-foldless avidity than does bFGF. The data from additional experiments yield apparent Kds of aFGF for flg in the range of 20-80 pM and for bek in the range of 40-100 pM. […] The range of values probably arises from determinations of the specific activity and biological integrity of different preparations of the iodinated ligands. […] These conclusions were supported by competition (isotope dilution) experiments in which increasing amounts of nonradioactive aFGF or bFGF competed for binding with [^125 I]aFGF and [^125 I]bFGF to flg- and bek-overexpressing cells.

bek = assay: Saturation (equilibrium) binding of [125I]FGF to bek-overexpressing cells, Scatchard analysis; parameters: species or system human; settings: for binding of [125I]aFGF and [125I]bFGF at saturation to bek in presence of unlabelled ligand: 100 fold molar excess of unlabelled ligand
Method: as §1

[1] = data from additional experiments, read-out: apparent Kd for flg, range
[2] = typical experiment, Scatchard analysis, flg-overexpressing NIH 3T3 cells (flg26), 4° C., read-out: affinity (dissociation constant) for flg
[3] = within any single experiment, compared to aFGF
[4] = data from additional experiments, read-out: apparent Kd for bek, range
[5] = typical experiment, Scatchard analysis, bek-overexpressing NIH 3T3 cells (bek8; bek13 for kFGF), 4° C., read-out: affinity (dissociation constant) for bek

Molecule | binding of [125I]aFGF and [125I]bFGF at saturation to flg in presence of unlabelled ligand (flg) | Kd (flg; [1]) [pM] | Kd (flg; [2]) [pM] | fold lower affinity for flg compared to aFGF (flg; [3]) | binding of [125I]aFGF and [125I]bFGF at saturation to bek in presence of unlabelled ligand (bek) | Kd (bek; [4]) [pM] | Kd (bek; [5]) [pM] | fold lower affinity for bek compared to aFGF (bek; [3]) | fold less avidity for flg than bFGF (flg; compared to bFGF) [fold]
bFGF: human recombinant basic fibroblast growth factor, radioiodinated for binding | completely eliminated | 50 to 150 | 47 | approximately 2 fold | completely eliminated | 80 to 150 | 82 | approximately 2 fold | 
B1 | completely eliminated | 20 to 80 | 24 |  | completely eliminated | 40 to 100 | 47 |  | 
B2 |  |  | 320 |  |  |  | 80 |  | 4
